The record followed here is the RNAGym collection of RNA variant scans (doi:10.7554/elife.80360).

Sequences and labels used below:
B1: HDV Ribozyme (parent)
chain: GGCCGGCAUGGUCCCAGCCUCCUCGCUGGCGCCGGCUGGGCAACAUUCCGAGGGGACCGUCCCCUCGGUAAUGGCGAAUGGGACCCA

The variants in the data set derive from B1. In words: self-cleavage, relative activity (ratio to wild type); higher = more cleavage; co-transcriptional.
Consider GGCCGGCAUGGUCCCAGCCUCCUGGCUGGCGCCGGCUGGGCAACAUUGCGAGGGGACCGUCCCCUCGGUAAUGGCGAAUGGGACCCA [C24G C48G], for which the self-cleavage was 0.0941. The result for GGCCGGCAUGGUCCCAGCCUCCUGGCUGGCGCCGGCUGGGCAACAUUCCGAGGGGACCGUCCCCUCGGUAAUGGCGAAUGGGACUCA [C24G C85U] reads 0.107; that for GGCCGGCAUGGUCCCAGCCUCCUGGCUGGCGCCGGCUGGGCAACAUUCCGAGGGGACCGUCCCCUCGGUAAUGGCGAAUGGGACACA [C24G C85A], 0.141. Regarding GGCCGGCAUGGUCCCAGCCUCCUGGCUGGCGCCGCCUGGGCAACAUUCCGAGGGGACCGUCCCCUCGGUAAUGGCGAAUGGGACCCA [C24G G35C], the self-cleavage worked out at 0.0332.

For the variant GGCCGGCAUGGUCCCAGCCUCCUGGCUGGCGCCGACUGGGCAACAUUCCGAGGGGACCGUCCCCUCGGUAAUGGCGAAUGGGACCCA [C24G G35A], the self-cleavage was 0.124. For the variant GGCCGGCAUGGUCCCAGCCUCCUAGCUGGCGCCGGCUGGGCAACAUUCCGAGGGGACCGUCCCCUCGGUAAUGCCGAAUGGGACCCA [C24A G74C], the self-cleavage came out at 0.0326.

For the variant GGCCGGCAUGGUCCCAGCCUCCUGGCUGGCGCCGGCUGGGCAACAUUCCGAGGGGACCGCCCCCUCGGUAAUGGCGAAUGGGACCCA [C24G U60C], the self-cleavage was 0.277. Take GGCCGGCAUGGUCCCAGCCUCCUGGCUGGCGCCGGCUGGGCAACAUUCCGAGGGGACCGACCCCUCGGUAAUGGCGAAUGGGACCCA [C24G U60A]: the self-cleavage is 0.264. On to GGCCGGCAUGGUCCCAGCCUCCUUGCUGGCGCCGGCUGGGCAACAUUCCGAGGGGUCCGUCCCCUCGGUAAUGGCGAAUGGGACCCA [C24U A56U], for which the self-cleavage is 0.401. The result for GGCCGGCAUGGUCCCAGCCUCCUUGCUGGCGCCGGCUGGGCAACAUUCCGAGGGGCCCGUCCCCUCGGUAAUGGCGAAUGGGACCCA [C24U A56C] reads 0.973; that for GGCCGGCAUGGUCCCAGCCUCCUGGCUGGCGCCGGCUGGGCAACAUUCCGAGGGGACCGUCCCCUCGGUAAUGGCGAAUGCGACCCA [C24G G81C], 0.032; that for GGCCGGCAUGGUCCCAGCCUCCUGCCUGGCGCCGGCUGGGCAACAUUCCGAGGGGACCGUCCCCUCGGUAAUGGCGAAUGGGACCCA [C24G G25C], 0.145. The result for GGCCGGCAUGGUCCCAGCCUCCUGACUGGCGCCGGCUGGGCAACAUUCCGAGGGGACCGUCCCCUCGGUAAUGGCGAAUGGGACCCA [C24G G25A] reads 0.0959; that for GGCCGGCAUGGUCCCAGCCUCCUGGCUGGCGCCGGCUGGGCAACAUUCCGAGGGGACCGUCCCCUCGGUGAUGGCGAAUGGGACCCA [C24G A70G], 0.0594. Turning to GGCCGGCAUGGUCCCAGCCUCCUGGCUGGCGCCGGCUGGGCAACAUUCCGAGGGGACCGUCCCCUCGGUAAUGGCGAAUGGGACCCA [C24G], the self-cleavage was found to be 0.13. GGCCGGCAUGGUCCCAGCCUCCUUGCUGGCGCCGGCUGGGCAACAUUCCGAGGGGACCGUCCCCUCGGUAAUGGCGAAUGGGACCCA [C24U]: the self-cleavage was 0.73. As to GGCCGGCAUGGUCCCAGCCUCCUGGCUGGCGCCGGCUGGGCAACAUUCCGAGGGGACCGUCCGCUCGGUAAUGGCGAAUGGGACCCA [C24G C63G], the self-cleavage is 0.217. GGCCGGCAUGGUCCCAGCCUCCUGGCUGGCGCCGGCUGGGCAACAUUCCGAGGGGACCGUCCCCUCGGUAAUGGCGAAUGGGACCUA [C24G C86U]: the self-cleavage amounted to 0.17. Under GGCCGGCAUGGUCCCAGCCUCCUAGCUGGCGCCGGCUGGGCAACAUUCCGAGAGGACCGUCCCCUCGGUAAUGGCGAAUGGGACCCA [C24A G53A] stands 0.893. Under GGCCGGCAUGGUCCCAGCCUCCUAGCUGGCGCCGGCUGGGCAACAUUCCGAGCGGACCGUCCCCUCGGUAAUGGCGAAUGGGACCCA [C24A G53C] stands 0.785; under GGCCGGCAUGGUCCCAGCCUCCUGGCUGGCCCCGGCUGGGCAACAUUCCGAGGGGACCGUCCCCUCGGUAAUGGCGAAUGGGACCCA [C24G G31C], 0.0563.

GGCCGGCAUGGUCCCAGCCUCCUGGCUGGCGCCGGCUGGGCAACAUUCCGAGGGGACCGUCCCCUCGGAAAUGGCGAAUGGGACCCA [C24G U69A]: the self-cleavage was found to be 0.204. Take GGCCGGCAUGGUCCCAGCCUCCUGGCUGGCGCCGGCUGGGCAACAUUCCGACGGGACCGUCCCCUCGGUAAUGGCGAAUGGGACCCA [C24G G52C]: the self-cleavage was found to be 0.172. Take GGCCGGCAUGGUCCCAGCCUCCUAGCUGGCGCCGGCUGGGCAACAUACCGAGGGGACCGUCCCCUCGGUAAUGGCGAAUGGGACCCA [C24A U47A]: the self-cleavage was determined as 0.554.

Take GGCCGGCAUGGUCCCAGCCUCCUGGCUGGCGCCGGCUGGUCAACAUUCCGAGGGGACCGUCCCCUCGGUAAUGGCGAAUGGGACCCA [C24G G40U]: the self-cleavage was 0.17. The result for GGCCGGCAUGGUCCCAGCCUCCUAGCUGGCGCCGGCUGUGCAACAUUCCGAGGGGACCGUCCCCUCGGUAAUGGCGAAUGGGACCCA [C24A G39U] reads 0.211; that for GGCCGGCAUGGUCCCAGCCUCCUAGCUGGCGCCGGCUGGGCAACAUUCCGAGGGGACCGUCCCCUCGUUAAUGGCGAAUGGGACCCA [C24A G68U], 0.776; that for GGCCGGCAUGGUCCCAGCCUCCUGGCUGGCGCCGGCUGGGCAACAUUCCGAGGGGACCGUCCCAUCGGUAAUGGCGAAUGGGACCCA [C24G C64A], 0.117.

With GGCCGGCAUGGUCCCAGCCUCCUAGCUGGCGCCGGCUGGGCAACAUUCCGAGGGAACCGUCCCCUCGGUAAUGGCGAAUGGGACCCA [C24A G55A], the self-cleavage came out at 0.684. The result for GGCCGGCAUGGUCCCAGCCUCCUAGCUGGCGCCGGCUGGGCAACAUUCCGAGGGGACCGUCCCCUCGGUAAUGGCGAAUUGGACCCA [C24A G80U] reads 0.198.

On to GGCCGGCAUGGUCCCAGCCUCCUGGCUGGCGCCGGCUGGGCAAAAUUCCGAGGGGACCGUCCCCUCGGUAAUGGCGAAUGGGACCCA [C24G C44A], for which the self-cleavage came to 0.0297.

Take GGCCGGCAUGGUCCCAGCCUCCUGGCUGGCGCCGGCUGGGCAAUAUUCCGAGGGGACCGUCCCCUCGGUAAUGGCGAAUGGGACCCA [C24G C44U]: the self-cleavage came out at 0.0978.
